Data reported in article PMC10172135.

Assays:
[1] = biological target: FRP-like protein (FRPL) from Pseudomonas borbori (Pseudomonas borbori); test: native MS; 4 µM (monomer) in 200 mM ammonium acetate pH 6.8, Q Exactive, positive ion mode
[2] = biological target: orange carotenoid protein OCP1 from Synechocystis sp. PCC 6803 (Synechocystis sp. PCC 6803)

Substance	stoichiometry N [1]	acceleration of OCP1’s recovery from photoconversion (20 °C, equimolar ratio of OCP1 to FRPL), compared to OCP1 alone [2] [%]
FRP-like protein (FRPL) from Pseudomonas borbori (natural protein)	2	
FRPL from a delta-proteobacterium of the Desulfobacteraceae family (natural protein)		93
